Measured values: patent US20190233493A1 (Sanofi, published 2019)
*1 amine or outer side, *2 acyl side, *3 side chain or, on linkers, in order; H or OH if unused. Primed or numbered codes have the meaning given here. Side-chain parts run from the residue outwards. [ ]: non-standard residue; d: D form. The star is where a group is joined. PEG12 = NCCOCCOCCOCCOCCOCCOCCOCCOCCOCCOCCOCCOCCC(=O)O; γGlu = O=C(O)[C@H](CCC(=O)[*:2])N[*:1]; 1Nal = N[C@@H](Cc1cccc2ccccc12)C(=O)O; Stearoyl = CCCCCCCCCCCCCCCCCC(=O)*; Palmitoyl = CCCCCCCCCCCCCCCC(=O)*; αMeK = C[C@](N)(CCCCN)C(=O)O; Nle = CCCC[C@H](N)C(=O)O; PEG2′ = PEG2 spacer unit; Aib = CC(C)(N)C(=O)O

T1: RXFP1 receptor (UniProt Q9HBX9 1-757, limits assumed)
T1 sequence (looked up): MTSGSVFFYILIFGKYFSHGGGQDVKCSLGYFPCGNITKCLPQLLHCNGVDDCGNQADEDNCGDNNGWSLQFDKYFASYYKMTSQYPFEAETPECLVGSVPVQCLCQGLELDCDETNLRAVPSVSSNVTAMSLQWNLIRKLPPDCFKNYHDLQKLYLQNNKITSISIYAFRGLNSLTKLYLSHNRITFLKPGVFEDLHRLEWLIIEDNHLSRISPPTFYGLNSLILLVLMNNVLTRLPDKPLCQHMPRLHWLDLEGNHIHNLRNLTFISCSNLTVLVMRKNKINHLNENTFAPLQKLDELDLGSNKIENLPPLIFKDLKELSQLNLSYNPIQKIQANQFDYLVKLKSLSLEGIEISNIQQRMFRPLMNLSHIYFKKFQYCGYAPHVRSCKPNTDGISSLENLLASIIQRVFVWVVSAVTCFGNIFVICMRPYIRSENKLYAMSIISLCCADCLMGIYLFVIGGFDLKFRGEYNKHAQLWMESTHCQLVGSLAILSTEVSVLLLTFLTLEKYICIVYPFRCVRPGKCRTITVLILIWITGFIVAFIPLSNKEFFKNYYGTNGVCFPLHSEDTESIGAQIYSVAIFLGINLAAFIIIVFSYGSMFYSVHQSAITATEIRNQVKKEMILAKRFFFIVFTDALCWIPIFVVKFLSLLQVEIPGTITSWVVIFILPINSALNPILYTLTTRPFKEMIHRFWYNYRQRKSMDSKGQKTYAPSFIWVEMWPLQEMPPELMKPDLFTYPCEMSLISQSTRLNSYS

B1: peptide of SEQ ID NO: 45 (peptide)
peptide: Ac-LEGREKVRAK(Ac)I[Aib][Aib]EG[Nle]ST[1Nal]S[Aib]RK[PEG12]K([γGlu-γGlu-γGlu-Stearoyl])-NH2
SMILES: CCCCCCCCCCCCCCCCCC(=O)N[C@@H](CCC(=O)N[C@@H](CCC(=O)N[C@@H](CCC(=O)NCCCC[C@H](NC(=O)CCOCCOCCOCCOCCOCCOCCOCCOCCOCCOCCOCCOCCNC(=O)[C@H](CCCCN)NC(=O)[C@H](CCCNC(=N)N)NC(=O)C(C)(C)NC(=O)[C@H](CO)NC(=O)[C@H](Cc1cccc2ccccc12)NC(=O)[C@@H](NC(=O)[C@H](CO)NC(=O)[C@H](CCCC)NC(=O)CNC(=O)[C@H](CCC(=O)O)NC(=O)C(C)(C)NC(=O)C(C)(C)NC(=O)[C@@H](NC(=O)[C@H](CCCCNC(C)=O)NC(=O)[C@H](C)NC(=O)[C@H](CCCNC(=N)N)NC(=O)[C@@H](NC(=O)[C@H](CCCCN)NC(=O)[C@H](CCC(=O)O)NC(=O)[C@H](CCCNC(=N)N)NC(=O)CNC(=O)[C@H](CCC(=O)O)NC(=O)[C@H](CC(C)C)NC(C)=O)C(C)C)[C@@H](C)CC)[C@@H](C)O)C(N)=O)C(=O)O)C(=O)O)C(=O)O
B2: peptide of SEQ ID NO: 42 (peptide)
peptide: Ac-LEGREKVRAK(Ac)I[Aib][Aib]EG[Nle]STWS[αMeK]RKK(Ac)[PEG12]K([γGlu-γGlu-γGlu-γGlu-Stearoyl])-NH2
SMILES: CCCCCCCCCCCCCCCCCC(=O)N[C@@H](CCC(=O)N[C@@H](CCC(=O)N[C@@H](CCC(=O)N[C@@H](CCC(=O)NCCCC[C@H](NC(=O)CCOCCOCCOCCOCCOCCOCCOCCOCCOCCOCCOCCOCCNC(=O)[C@H](CCCCNC(C)=O)NC(=O)[C@H](CCCCN)NC(=O)[C@H](CCCNC(=N)N)NC(=O)[C@](C)(CCCCN)NC(=O)[C@H](CO)NC(=O)[C@H](Cc1c[nH]c2ccccc12)NC(=O)[C@@H](NC(=O)[C@H](CO)NC(=O)[C@H](CCCC)NC(=O)CNC(=O)[C@H](CCC(=O)O)NC(=O)C(C)(C)NC(=O)C(C)(C)NC(=O)[C@@H](NC(=O)[C@H](CCCCNC(C)=O)NC(=O)[C@H](C)NC(=O)[C@H](CCCNC(=N)N)NC(=O)[C@@H](NC(=O)[C@H](CCCCN)NC(=O)[C@H](CCC(=O)O)NC(=O)[C@H](CCCNC(=N)N)NC(=O)CNC(=O)[C@H](CCC(=O)O)NC(=O)[C@H](CC(C)C)NC(C)=O)C(C)C)[C@@H](C)CC)[C@@H](C)O)C(N)=O)C(=O)O)C(=O)O)C(=O)O)C(=O)O

Target: T1, RXFP1 receptor
Assay: cell-based or functional assay

Row | Binder | EC50 (nM), OVCAR 5 cells (cAMP) [nM] | EMax, OVCAR 5 cells (cAMP) [%]
1 | Ac-LEGREKVRAK(Ac)I[Aib][Aib]EG[Nle]STWS[αMeK]RKK(Ac)[PEG12]K([γGlu-γGlu-γGlu-γGlu-Palmitoyl])-NH2 [peptide of SEQ ID NO: 43] | 0.14 | 106
2 | B1 | 0.81 | 79
3 | Ac-LEGREKVRAK(Ac)I[Aib][Aib]EGQSTYS[Aib]RKK(Ac)K([PEG2′-PEG2′-PEG2′-γGlu-γGlu-γGlu-Palmitoyl])-NH2 [peptide of SEQ ID NO: 44] | 16.1 | 75
4 | B2 | 0.01 | 91
